Experimental data taken from IntAct's records for PubMed 17299042.

B1: Protein BMH2 (Saccharomyces cerevisiae), P34730 (parent)
chain: MSQTREDSVYLAKLAEQAERYEEMVENMKAVASSGQELSVEERNLLSVAYKNVIGARRASWRIVSSIEQKEESKEKSEHQVELIRSYRSKIETELTKISDDILSVLDSHLIPSATTGESKVFYYKMKGDYHRYLAEFSSGDAREKATNSSLEAYKTASEIATTELPPTHPIRLGLALNFSVFYYEIQNSPDKACHLAKQAFDDAIAELDTLSEESYKDSTLIMQLLRDNLTLWTSDISESGQEDQQQQQQQQQQQQQQQQQAPAEQTQGEPTK

Variants of: B1
Conditions: with rad53_yeast RAD53, P22216
Sequence of rad53_yeast RAD53, P22216 (P22216 whole entry): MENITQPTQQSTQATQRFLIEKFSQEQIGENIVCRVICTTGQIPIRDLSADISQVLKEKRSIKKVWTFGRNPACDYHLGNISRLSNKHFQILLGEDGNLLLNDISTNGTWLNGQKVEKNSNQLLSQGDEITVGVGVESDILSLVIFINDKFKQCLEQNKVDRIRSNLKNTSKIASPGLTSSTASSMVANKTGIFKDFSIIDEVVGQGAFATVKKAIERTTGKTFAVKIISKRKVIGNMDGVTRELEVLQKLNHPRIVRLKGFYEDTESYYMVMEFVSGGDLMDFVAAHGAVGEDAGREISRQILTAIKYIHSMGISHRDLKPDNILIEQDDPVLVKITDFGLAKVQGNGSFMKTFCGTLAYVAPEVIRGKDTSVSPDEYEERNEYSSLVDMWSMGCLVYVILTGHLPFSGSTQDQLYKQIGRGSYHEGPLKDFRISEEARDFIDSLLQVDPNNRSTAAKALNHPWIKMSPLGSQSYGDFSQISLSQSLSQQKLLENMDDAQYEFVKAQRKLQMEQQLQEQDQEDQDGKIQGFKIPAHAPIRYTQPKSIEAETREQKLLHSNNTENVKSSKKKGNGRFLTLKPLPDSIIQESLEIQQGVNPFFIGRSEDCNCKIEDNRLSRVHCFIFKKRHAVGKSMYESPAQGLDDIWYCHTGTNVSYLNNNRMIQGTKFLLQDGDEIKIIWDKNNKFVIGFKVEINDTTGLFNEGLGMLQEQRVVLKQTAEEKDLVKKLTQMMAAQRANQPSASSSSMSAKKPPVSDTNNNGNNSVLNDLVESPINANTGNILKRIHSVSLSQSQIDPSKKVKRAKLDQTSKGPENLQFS

Variant | effect of a mutation on the interaction
K51R | decreasing interaction strength
K51L | decreasing interaction strength
E185D | disrupting interaction strength
L225Q | disrupting interaction strength
